From paper PMC8993221, “Agl24 is an ancient archaeal homolog of the eukaryotic N-glycan chitobiose synthesis enzymes” (eLife, 2022)

Substrate: CC(=O)N[C@H]1[C@@H](OP(=O)(O)OP(=O)(O)OC[C@H]2O[C@@H](n3ccc(=O)[nH]c3=O)[C@H](O)[C@@H]2O)O[C@H](CO)[C@@H](O)[C@@H]1O
Experiment: purified protein
Format: biochemical, Sulfolobus acidocaldarius
Settings: 0.5 mM acceptor-2 (phenyl-O-C11H22-PP-GlcNAc), TBS with 5 mM MgCl2, pH 7.5, 60 °C, 10 hr, UDP-GlcNAc 0.5-12 mM

B1: Agl24 (Saci1262) (Sulfolobus acidocaldarius DSM 639) (protein)
chain: MIDNPLLIIASGGGHTGFARAIAEYLPFKPDFVIPENDRFSKDMLLDYARKLYYVKKGKDPGQGNIVLMRNFLKIIIESGKIPKYLATIATGSNHSLIPAMFQKIKGSALYVTESQDRIITRGKTVSVLSKFSRHVFLHWNEQKGLYDNGVVVGPIVEKPKYKSENKGYILVTTGSMGFKKLFDSLLNLRGNYKFVIQTGKVDPTPYIEKKPDWSFFSFDKDIERYIANAELVITHQGKTAMESVVMYGKPTIIVYNKDWKSATTKQDTILYSKILGATFLDDPSTWDSIKVLEDSIQNVRKPNQFEIGTPKLIDIILSELAEFLRE
notes: full length (327 residues), C-terminal TEV site-GFP-His8 fusion (pWaldo, plasmid pHD0499), tags kept; E. coli BL21 membranes, DDM-solubilised, Ni purified
  Km: 1370 ± 130 µM
